The supplement of paper PMC5998384

Experiments:
HeLa Kyoto [1] = assay: solubility in G1/S (NP-40 vs SDS abundance) (log2 ratio); higher = more soluble; conditions: cell cycle stage: G1/S
HeLa Kyoto [2] = assay: melting temperature (median over replicates), in situ; higher = more thermally stable
HeLa Kyoto [3] = assay: solubility change mitosis vs G1/S (difference of NP-40 vs SDS log2 ratios) (log2 ratio difference); higher = more soluble in mitosis
HeLa Kyoto [4] = assay: thermal stability score vs G1/S (z-score of summed log2 fold changes over temperatures); higher = more thermally stable than in G1/S
[5] = cell cycle stage: early G1 (4.5 h after nocodazole release)
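Throughout, for melting temperature (median over replicates), in situ: HeLa Kyoto cells synchronized by double thymidine or nocodazole block, proteins quantified by TMT10plex mass spectrometry, three independent biological replicates.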
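Throughout, for solubility change mitosis vs G1/S (difference of NP-40 vs SDS log2 ratios): synchronized HeLa Kyoto cells (double thymidine block for G1/S, nocodazole release for mitosis), protein amounts in NP-40 versus SDS lysates quantified by mass spectrometry, three biological replicates.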
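Throughout, for solubility in G1/S (NP-40 vs SDS abundance): HeLa Kyoto cells arrested at G1/S by double thymidine block, proteins quantified by TMT10plex mass spectrometry in mild NP-40 versus SDS extracts, three biological replicates.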
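Throughout, for thermal stability score vs G1/S (z-score of summed log2 fold changes over temperatures): synchronized HeLa Kyoto cells, proteins quantified by TMT10plex mass spectrometry, three biological replicates, mitosis taken 0.5 h after nocodazole release, G1/S directly after double thymidine block.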

Substance	solubility in G1/S (log2) (HeLa Kyoto [1])	melting temperature (HeLa Kyoto [2]; cell cycle stage: G1/S)	melting temperature (HeLa Kyoto [2]; cell cycle stage: mitosis)	solubility change mitosis (log2) (HeLa Kyoto [3])	thermal stability score (HeLa Kyoto [4]; [5])	thermal stability score (HeLa Kyoto [4]; cell cycle stage: mitosis)
MASAGDTQAGPRDAADQNFDYMFKLLLIGNSSVGKTSFLFRYADDSFTPAFVSTVGIDFKVKTVYRHDKRIKLQIWDTAGQERYRTITTAYYRGAMGFLLMYDIANQESFAAVQDWATQIKTYSWDNAQVILVGNKCDLEDERVVPAEDGRRLADDLGFEFFEASAKENINVKQVFERLVDVICEKMNESLEPSSSSGSNGKGPAVGDAPAPQPSSCSC [RAB3D]	0.0512	57.2 °C	57.6 °C	-0.109	-1.66	-1.58
MAQAGVVGEVTQVLCAAGGALELPELRRRLRMGLSADALERLLRQRGRFVVAVRAGGAAAAPERVVLAASPLRLCRAHQGSKPGCVGLCAQLHLCRFMVYGACKFLRAGKNCRNSHSLTTEHNLSVLRTHGVDHLSYNELCQLLFQNDPWLLPEICQHYNKGDGPHGSCAFQKQCIKLHICQYFLQGECKFGTSCKRSHDFSNSENLEKLEKLGMSSDLVSRLPTIYRNAHDIKNKSSAPSRVPPLFVPQGTSERKDSSGSVSPNTLSQEEGDQICLYHIRKSCSFQDKCHRVHFHLPYRWQFLDRGKWEDLDNMELIEEAYCNPKIERILCSESASTFHSHCLNFNAMTYGATQARRLSTASSVTKPPHFILTTDWIWYWSDEFGSWQEYGRQGTVHPVTTVSSSDVEKAYLAYCTPGSDGQAATLKFQAGKHNYELDFKAFVQKNLVYGTTKKVCRRPKYVSPQDVTTMQTCNTKFPGPKSIPDYWDSSALPDPGFQKITLSSSSEEYQKVWNLFNRTLPFYFVQKIERVQNLALWEVYQWQKGQMQKQNGGKAVDERQLFHGTSAIFVDAICQQNFDWRVCGVHGTSYGKGSYFARDAAYSHHYSKSDTQTHTMFLARVLVGEFVRGNASFVRPPAKEGWSNAFYDSCVNSVSDPSIFVIFEKHQVYPEYVIQYTTSSKPSVTPSILLALGSLFSSRQ [PARP12]	-0.201	49.2 °C	48.1 °C	-0.0418	1.19	1.46
FRYL	-0.239	49.7 °C	52.1 °C	-0.116	-0.342	0.441
MMAIRELKVCLLGDTGVGKSSIVCRFVQDHFDHNISPTIGASFMTKTVPCGNELHKFLIWDTAGQERFHSLAPMYYRGSAAAVIVYDITKQDSFYTLKKWVKELKEHGPENIVMAIAGNKCDLSDIREVPLKDAKEYAESIGAIVVETSAKNAINIEELFQGISRQIPPLDPHENGNNGTIKVEKPTMQASRRCC [RAB31]	-0.166	54.6 °C	53.9 °C	0.0123	-1.38	-0.537
MGNLLKVLTCTDLEQGPNFFLDFENAQPTESEKEIYNQVNVVLKDAEGILEDLQSYRGAGHEIREAIQHPADEKLQEKAWGAVVPLVGKLKKFYEFSQRLEAALRGLLGALTSTPYSPTQHLEREQALAKQFAEILHFTLRFDELKMTNPAIQNDFSYYRRTLSRMRINNVPAEGENEVNNELANRMSLFYAEATPMLKTLSDATTKFVSENKNLPIENTTDCLSTMASVCRVMLETPEYRSRFTNEETVSFCLRVMVGVIILYDHVHPVGAFAKTSKIDMKGCIKVLKDQPPNSVEGLLNALRYTTKHLNDETTSKQIKSMLQ [FAM49B]	0.31	54.2 °C	54.2 °C	0.0154	1.27	0.808
MATEHPEPPKAELQLPPPPPPGHYGAWAAQELQAKLAEIGAPIQGNREELVERLQSYTRQTGIVLNRPVLRGEDGDKAAPPPMSAQLPGIPMPPPPLGLPPLQPPPPPPPPPPGLGLGFPMAHPPNLGPPPPLRVGEPVALSEEERLKLAQQQAALLMQQEERAKQQGDHSLKEHELLEQQKRAAVLLEQERQQEIAKMGTPVPRPPQDMGQIGVRTPLGPRVAAPVGPVGPTPTVLPMGAPVPRPRGPPPPPGDENREMDDPSVGPKIPQALEKILQLKESRQEEMNSQQEEEEMETDARSSLGQSASETEEDTVSVSKKEKNRKRRNRKKKKKPQRVRGVSSESSGDREKDSTRSRGSDSPAADVEIEYVTEEPEIYEPNFIFFKRIFEAFKLTDDVKKEKEKEPEKLDKLENSAAPKKKGFEEEHKDSDDDSSDDEQEKKPEAPKLSKKKLRRMNRFTVAELKQLVARPDVVEMHDVTAQDPKLLVHLKATRNSVPVPRHWCFKRKYLQGKRGIEKPPFELPDFIKRTGIQEMREALQEKEEQKTMKSKMREKVRPKMGKIDIDYQKLHDAFFKWQTKPKLTIHGDLYYEGKEFETRLKEKKPGDLSDELRISLGMPVGPNAHKVPPPWLIAMQRYGPPPSYPNLKIPGLNSPIPESCSFGYHAGGWGKPPVDETGKPLYGDVFGTNAAEFQTKTEEEEIDRTPWGELEPSDEESSEEEEEEESDEDKPDETGFITPADSGLITPGGFSSVPAGMETPELIELRKKKIEEAMDGSETPQLFTVLPEKRTATVGGAMMGSTHIYDMSTVMSRKGPAPELQGVEVALAPEELELDPMAMTQKYEEHVREQQAQVEKEDFSDMVAEHAAKQKQKKRKAQPQDSRGGSKKYKEFKF [SF3B2]	-0.165	50.5 °C	49.9 °C	0.237	-1.42	-2.09
MAVARLAAVAAWVPCRSWGWAAVPFGPHRGLSVLLARIPQRAPRWLPACRQKTSLSFLNRPDLPNLAYKKLKGKSPGIIFIPGYLSYMNGTKALAIEEFCKSLGHACIRFDYSGVGSSDGNSEESTLGKWRKDVLSIIDDLADGPQILVGSSLGGWLMLHAAIARPEKVVALIGVATAADTLVTKFNQLPVELKKEVEMKGVWSMPSKYSEEGVYNVQYSFIKEAEHHCLLHSPIPVNCPIRLLHGMKDDIVPWHTSMQVADRVLSTDVDVILRKHSDHRMREKADIQLLVYTIDDLIDKLSTIVN [ABHD10]	0.191	57.4 °C	57.6 °C	-0.147	1.29	-0.803
